Results as given in patent publication US6852509 (dated 2005).
One block for each binder: values may come before it.

Molecular target: T1, wild-type p53 protein (UniProt P04637 1-393)
T1 construct: also called purified p53
Test: ELISA on plates coated with purified p53
From the text: The two IgGs are then visualized using a secondary anti-IgG antibody which is coupled to alkaline phosphatase. The biotinylated serum is visualized using extravidin which is coupled to alkaline phosphatase. The ScFvs are visualized using the anti-myc antibody 9E10 and then using an anti-IgG antibody which is coupled to alkaline phosphatase.

T1 sequence (P04637 whole entry): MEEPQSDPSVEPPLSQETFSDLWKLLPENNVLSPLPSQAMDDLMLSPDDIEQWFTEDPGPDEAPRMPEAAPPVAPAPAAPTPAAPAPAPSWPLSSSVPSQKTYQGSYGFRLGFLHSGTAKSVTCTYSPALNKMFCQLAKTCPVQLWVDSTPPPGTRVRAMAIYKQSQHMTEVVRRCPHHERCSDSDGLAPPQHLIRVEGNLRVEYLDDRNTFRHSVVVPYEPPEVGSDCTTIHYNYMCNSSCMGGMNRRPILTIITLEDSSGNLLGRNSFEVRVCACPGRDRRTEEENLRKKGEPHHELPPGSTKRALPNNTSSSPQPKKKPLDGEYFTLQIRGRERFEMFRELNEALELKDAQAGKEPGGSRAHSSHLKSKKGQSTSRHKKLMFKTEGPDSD

binding result: binds
B1: ScFv 421-myc (scFv)
scFv: QVQLQQSGAELVRSGASVKLSCTASGFNIKDYYMHWVKQRPEQGLEWIGWIDPENGDTEYAPKFQGKATMTADTSSNTAYLQLSSLASEDTAVYYCNFYGDALDYWGQGTTVTVSSGGGGSGGGGSGGGGSDVLMTQTPLTLSVTIGQPASISCKSSQSLLDSDGKTYLNWLLQRPGQSPKRLIYLVSKLDSGVPDRFTGSGSGTDFTLKINRVEAEDLGVYYCWQGTHSPLTFGAGTKLEIK
notes: Produced from bacterial periplasm; not shown: myc tag fused for detection

binding result: binds
B2: ScFv 11D3-myc (scFv)
scFv: QVKLQESGAELVRSGASVNLSCTASGFNIKDYYMHWVKQRPEEGLEWIGYIDPESGETEYAPNFQGKATVTADTSSNTAYLHLSSLTSEDTTVYYCNAVIYYEYDGYALDYWGQGTTVTVSSGGGGSGGGGSGGGGSDIELTQSPSSLAVSAGEKVAMSCKSSQSLFNSRTRKNYLAWYQQKPGQSPKVLIYWASTRESGVPDRFTGSGSGTDFTLTISSVQAEDLAVYYCKQSYNLPTFGGGTKLEIK
notes: Produced from bacterial periplasm; also called 11D3 ScFv; D3M ScFv; not shown: myc tag fused for detection
